Molecular target: T1, MBP-JAZ9-8×His (recombinant, E. coli-expressed) (Arabidopsis, UniProt Q8W4J8 1-267, limits assumed)
T1 construct: procedure cited from Katsir et al. 2008; also called Escherichia coli-expressed JAZ9 protein
T1 sequence: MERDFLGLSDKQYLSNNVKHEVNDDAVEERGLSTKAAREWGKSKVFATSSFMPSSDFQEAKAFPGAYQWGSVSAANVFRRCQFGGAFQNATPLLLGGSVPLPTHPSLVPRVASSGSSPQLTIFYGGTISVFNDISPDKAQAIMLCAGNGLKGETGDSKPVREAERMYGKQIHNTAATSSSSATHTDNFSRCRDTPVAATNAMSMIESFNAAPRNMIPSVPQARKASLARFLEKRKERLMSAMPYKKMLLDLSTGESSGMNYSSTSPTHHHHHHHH
Assay: Ni-resin pull-down of plant-expressed COI1-4×c-Myc with MBP-JAZ9-8×His, COR series, anti-c-Myc immunoblot
Description: Pull-down assays were performed with protein extracts from 4-mg pCOI1:COI1WT/A384V-4×c-Myc plants and 25 μg recombinant MBP-JAZ9-8×His. […] Eighty microliters of Ni resin (Invitrogen) were added, followed by an additional 15-min incubation period at 4° C. MBP-JAZ9-8×Hisbound Ni resin was washed three times on microcentrifuge spin columns with 0.25 mL binding buffer at 4° C. MBP-JAZ9-8×His was eluted from the resin with 100 μL of 300 mM imidazole. Proteins bound to MBP-JAZ9-8×His were analyzed by immunoblotting for the presence of COI1WT/A384V-4×c-Myc using anti-cMyc antibody. MBP-JAZ9-8×His recovered by the Ni affinity resin was detected by Coomassie blue staining.

fold higher COR concentration required for robust co-receptor formation, against COI1WT-JAZ9: ~100 fold
B1: COI1A384V-4×c-Myc (plant-expressed) (receptor, not shown: small tags and cut ends)
chain: MEDPDIKRCKLSCVATVDDVIEQVMTYITDPKDRDSASLVCRRWFKIDSETREHVTMALCYTATPDRLSRRFPNLRSLKLKGKPRAAMFNLIPENWGGYVTPWVTEISNNLRQLKSVHFRRMIVSDLDLDRLAKARADDLETLKLDKCSGFTTDGLLSIVTHCRKIKTLLMEESSFSEKDGKWLHELAQHNTSLEVLNFYMTEFAKISPKDLETIARNCRSLVSVKVGDFEILELVGFFKAAANLEEFCGGSLNEDIGMPEKYMNLVFPRKLCRLGLSYMGPNEMPILFPFAAQIRKLDLLYALLETEDHCTLIQKCPNLEVLETRNVIGDRGLEVLAQYCKQLKRLRIERGADEQGMEDEEGLVSQRGLIALAQGCQELEYMVVYVSDITNESLESIGTYLKNLCDFRLVLLDREERITDLPLDNGVRSLLIGCKKLRRFAFYLRQGGLTDLGLSYIGQYSPNVRWMLLGYVGESDEGLMEFSRGCPNLQKLEMRGCCFSERAIAAAVTKLPSLRYLWVQGYRASMTGQDLMQMARPYWNIELIPSRRVPEVNQQGEIREMEHPAHILAYYSLAGQRTDCPTTVRVLKEPI
notes: In protein extracts of transgenic Arabidopsis (coi1-30 background); C-terminal 4×c-Myc tag; also called pCOI1:COI1A384V-4×c-Myc

From patent US20180135070A1 (BOARD OF TRUSTEES OF MICHIGAN STATE UNIVERSITY, published 2018)
